Results from patent publication US20060277614A1 (INSTITUT NAT L DE LA SANTE ET DE LA RECH MED, published 2006).
Residue numbers refer to the chain shown, from its start. In names and notes the source's numbering stands.

How the values were obtained:
[1] = molecular target: T1, human prolactin receptor (human, UniProt P16471 25-622); experiment: competition with [125I]-hPRL on HL5 cell homogenates (human PRLR); mean of three experiments
T1 sequence (looked up): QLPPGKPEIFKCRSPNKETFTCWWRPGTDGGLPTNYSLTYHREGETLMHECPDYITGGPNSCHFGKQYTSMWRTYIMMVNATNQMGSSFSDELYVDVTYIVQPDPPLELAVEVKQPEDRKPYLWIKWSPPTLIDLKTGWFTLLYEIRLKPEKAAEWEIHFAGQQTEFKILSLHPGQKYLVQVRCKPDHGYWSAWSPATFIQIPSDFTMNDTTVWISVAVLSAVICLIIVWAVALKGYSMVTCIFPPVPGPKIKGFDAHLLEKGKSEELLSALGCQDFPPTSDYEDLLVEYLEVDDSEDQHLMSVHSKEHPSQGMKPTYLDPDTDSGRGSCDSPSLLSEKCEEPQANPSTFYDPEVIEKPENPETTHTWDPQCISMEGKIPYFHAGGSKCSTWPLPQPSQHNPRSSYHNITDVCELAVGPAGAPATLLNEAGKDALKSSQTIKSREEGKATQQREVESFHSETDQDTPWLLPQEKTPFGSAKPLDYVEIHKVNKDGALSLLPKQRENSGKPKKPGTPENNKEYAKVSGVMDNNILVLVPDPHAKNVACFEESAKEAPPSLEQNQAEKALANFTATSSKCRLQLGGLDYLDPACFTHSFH
Procedure: (§1) The affinity of the various hPRL analogs for the human PRLR was estimated by their ability to compete [¹²⁵I]-hPRL for binding to this receptor. Binding affinities were determined using cell homogenates of HL5 cells (expressing the human PRLR), following the procedure previously described (KINET et al., J. Biol. Chem., 274, 26033-26043, 1999).
(§2) Briefly, hPRL was iodinated using IODOGEN, and its specific activity was in the range of 40-50 μCi/μg. Binding assays were performed overnight at room temperature using 150-300 μg cell homogenate protein in the presence of 30,000 cpm [¹²⁵I]-hPRL and increasing concentrations of unlabeled competitor (WT or mutated hPRL).
(§3) The relative binding affinity of hPRL analogs was calculated as the ratio of their IC₅₀ with respect to that of WT hPRL calculated from competition curves (regression in the linear part of sigmoids). Results presented in FIG. 2A are representative of at least three independent experiments performed in duplicate.

[2] = molecular target: T1, human prolactin receptor; experiment: cell-based or functional assay
[3] = molecular target: T1, human prolactin receptor; experiment: competition with [125I]-hPRL on HL5 cell homogenates (human PRLR)
Procedure: as §1, §2, §3

[4] = molecular target: human prolactin receptor (human) (UniProt P16471); experiment: competition with [125I]-hPRL on HL5 cell homogenates (human PRLR); ratio of IC50 to that of WT hPRL
[5] = molecular target: human prolactin receptor (human) (UniProt P16471); experiment: cell-based or functional assay
[6] = molecular target: T1, human prolactin receptor; experiment: competition of unlabeled WT hPRL with [125I]-hPRL on HL5 cell homogenates (human PRLR); mean of three experiments
Procedure: as §1, §2, §3

Δ1-9-G129R-hPRL (from UniProt P01236 10-199) (ligand)
IC50 [1]: 0.166 µg/mL | Ba/F3-hPRLR cell proliferation, antagonism of 10 ng/ml WT hPRL, molar excess needed [2]: 10 to 50 fold | fold lower affinity compared to WT hPRL [3]: 10 fold

Δ1-9-hPRL (from UniProt P01236 10-199) (ligand)
increase in affinity compared to WT hPRL [4]: 20% | LHRE-luciferase reporter in HL5 cells, EC50 against WT hPRL [5]: 2 fold | LHRE-luciferase reporter in HL5 cells, maximal response against WT hPRL [5]: 120 to 140%

Δ1-10-hPRL (from UniProt P01236 11-199) (ligand)
LHRE-luciferase reporter in HL5 cells, EC50 against WT hPRL [5]: 2 fold | LHRE-luciferase reporter in HL5 cells, maximal response against WT hPRL [5]: 120 to 140%

B1: Δ1-14-hPRL (ligand, human)
chain: MLRDLFDRAVVLSHYIHNLSSEMFSEFDKRYTHGRGFITKAINSCHTSSLATPEDKEQAQQMNQKDFLSLIVSILRSWNEPLYHLVTEVRGMQEAPEAILSKAVEIEEQTKRLLEGMELIVSQVHPETKENEIYPVWSGLPSLQMADEESRLSAYYNLLHCLRRDSHKIDNYLKLLKCRIIHNNNC
LHRE-luciferase reporter in HL5 cells, EC50 against WT hPRL [2]: ~3 fold

B2: Δ1-14-G129R-hPRL (ligand, human)
chain: B1 chain with G116R
notes: range 15-199; Mature-hormone numbering; also called Δ1-14-G129R-PRL; double mutant Δ1-14-G129R-hPRL
IC50 [1]: 0.187 µg/mL | fold lower affinity compared to WT hPRL [3]: ~10 fold

B3: wild-type human prolactin (ligand, UniProt P01236 29-227, looked up)
chain: LPICPGGAARCQVTLRDLFDRAVVLSHYIHNLSSEMFSEFDKRYTHGRGFITKAINSCHTSSLATPEDKEQAQQMNQKDFLSLIVSILRSWNEPLYHLVTEVRGMQEAPEAILSKAVEIEEQTKRLLEGMELIVSQVHPETKENEIYPVWSGLPSLQMADEESRLSAYYNLLHCLRRDSHKIDNYLKLLKCRIIHNNNC
notes: mature; Monomeric fraction used; Residue numbers (Cys4, Cys11, Gly129) count on the mature hormone; also called WT hPRL; hPRL
IC50 [6]: 0.018 µg/mL

B4: G129R-hPRL (ligand, human, UniProt P01236 29-227, looked up)
chain: B3 chain with G129R
notes: mature; also called single mutant G129R-hPRL
fold lower affinity compared to WT hPRL [3]: ~10 fold

B5: Δ1-11-hPRL (ligand, human)
chain: MQVTLRDLFDRAVVLSHYIHNLSSEMFSEFDKRYTHGRGFITKAINSCHTSSLATPEDKEQAQQMNQKDFLSLIVSILRSWNEPLYHLVTEVRGMQEAPEAILSKAVEIEEQTKRLLEGMELIVSQVHPETKENEIYPVWSGLPSLQMADEESRLSAYYNLLHCLRRDSHKIDNYLKLLKCRIIHNNNC
LHRE-luciferase reporter in HL5 cells, EC50 against WT hPRL [2]: ~2 fold

B6: Δ1-12-hPRL (ligand, human)
chain: MVTLRDLFDRAVVLSHYIHNLSSEMFSEFDKRYTHGRGFITKAINSCHTSSLATPEDKEQAQQMNQKDFLSLIVSILRSWNEPLYHLVTEVRGMQEAPEAILSKAVEIEEQTKRLLEGMELIVSQVHPETKENEIYPVWSGLPSLQMADEESRLSAYYNLLHCLRRDSHKIDNYLKLLKCRIIHNNNC
LHRE-luciferase reporter in HL5 cells, EC50 against WT hPRL [2]: ~2 fold

B7: Δ1-13-hPRL (ligand, human)
chain: MTLRDLFDRAVVLSHYIHNLSSEMFSEFDKRYTHGRGFITKAINSCHTSSLATPEDKEQAQQMNQKDFLSLIVSILRSWNEPLYHLVTEVRGMQEAPEAILSKAVEIEEQTKRLLEGMELIVSQVHPETKENEIYPVWSGLPSLQMADEESRLSAYYNLLHCLRRDSHKIDNYLKLLKCRIIHNNNC
LHRE-luciferase reporter in HL5 cells, EC50 against WT hPRL [2]: ~2 fold
